Data from US20050223436A1, “EPSP synthase highly tolerant to glyphosate” (priority 2003, published 2005).

What was measured:
E. coli JM109 = experiment: Glyphosate tolerance of E. coli JM109 transformants on MOPS media plates; type: cell-based; conditions: bacteria transformed with DNA encoding the enzyme (summary of Example 1)
Excerpt: A SuperCos1 Cosmid Vector kit (Stratagene Co., Ltd) was used to construct a community genomic DNA cosmid library. The community genomic DNA was digested with restriction endonuclease Sau3AI at 0.006 unit/microgram purified DNA. DNA fragments of about 40 kb were collected using the freeze-thaw method, and then ligated with SuperCos1/BamH1 vector. A cosmid genomic DNA library was constructed according to the manual of Stratagene Co., Ltd. For screening of glyphosate tolerant clones, JM109 E. coli was used as the acceptor bacterium for the genomic library construct, as glyphosate is only effective on an inhibitory medium such as M9 and MOPS. The ligated DNA was packaged into lambda phage particles (Stratagene, Gigapack Gold) according to the manufacturer's protocol. E. coli strain JM109 was infected with the packaged product. The transformants were selected on tetracycline LB media. Positive clones were then plated on LB media containing tetracycline and tetracycline+kanamycin, respectively. Clones growing on both media were considered as negative recombinants resulting from vector ligated with vector DNA. The number of positive transformants was calculated as the total number of colonies minus background false negative colonies. This number was used to determine the titer of the genomic library, which was 4×10^6 pfu/ml, meeting the requirement for library construction (>10^6 pfu/ml). […]

tobacco = experiment: Glyphosate tolerance of transgenic tobacco; type: in vivo; conditions: transgenic plants, greenhouse assays
Experimental: (4) Transformation of tobacco was carried out according to the leaf disc transformation protocol, using sterilized tissue of a healthy leaf of about 2 weeks old. The main vein was removed and the leaf was cut into small pieces of 2 cm^2.
(8) After development of the roots, plants were taken out. The attached solid culture media was washed off with sterile water. The plants were initially kept in a high humidity environment such as a plastic container with a glass cover for a few days. After the plants had grown stronger, the glass covers were removed, and the plants were transferred to solid culture media containing 10 mM glyphosate for screening of glyphosate tolerant plants.
(10) Glyphosate tolerance assays in greenhouse also confirmed that the transgenic plants could grow well in media containing 15 mM glyphosate.

B1: EPSP synthase: novel 444 amino acid EPSP synthase highly tolerant to glyphosate, encoded by SEQ ID NO:1/3 (protein, listed as Unknown bacterium)
chain: MACLPDDSGPHVGHSTPPRLDQEPCTLSSQKTVTVTPPNFPLTGKVAPPGSKSITNRALLLAALAKGTSRLSGALKSDDTRHMSVALRQMGVTIDEPDDTTFVVTSQGSLQLPAQPLFLGNAGTAMRFLTAAVATVQGTVVLDGDEYMQKRPIGPLLATLGQNGIQVDSPTGCPPVTVHGMGKVQAKRFEIDGGLSSQYVSALLMLAACGEAPIEVALTGKDIGARGYVDLTLDCMRAFGAQVDAVDDTTWRVAPTGYTAHDYLIEPDASAATYLWAAEVLTGGRIDIGVAAQDFTQPDAKAQAVIAQFPNMQATVVGSQMQDAIPTLAVLAAFNNTPVRFTELANLRVKECDRVQALHDGLNEIRPGLATIEGDDLLVASDPALAGTACTALIDTHADHRIAMCFALAGLKVSGIRIQDPDCVAKTYPDYWKAWPSLGVHLND
E. coli JM109
  glyphosate concentration of media in which transformed bacteria grew: 10 to 150 mM
tobacco
  glyphosate concentration in which transgenic tobacco grew: 15 mM
